These results are taken from publication PMC4443670, “The C-terminal region of the motor protein MCAK controls its structure and activity through a conformational switch” (eLife, 2015).

Where “and” joins values, the source holds several entries; their conditions need not be identical. Identical values can stand only once.

The subject of data set [1] is taxol-stabilized microtubules. Kind of data set: Microtubule cosedimentation assay, untreated microtubules. It counts as binding. The settings on record: for Kd: full-length protein, 50 nM, untreated microtubules, modified Hill equation, at least three independent experiments, read-out: apparent Kd for microtubules. How it is done:
(§1) Full-length MCAK complex was diluted in S buffer (50 mM NaCl, 20 mM Hepes pH 7.0) to 50 nM, in absence of nucleotide to prevent MCAK-dependent microtubule depolymerisation. To assemble an MCAK motor-CT domain complex, 50 nM of the motor domain and 100 nM of the CT domain were used. Microtubule binding assays were performed as described ([Cheeseman et al., 2006]) using equal volumes of taxol-stabilized microtubules in BRB80 and MCAK in S buffer. MCAK was quantified using anti-MCAK antibody against the C terminus of MCAK (709[…]720), generated by GL Biochem (Shangai) Ltd (China) or anti-His antibody to probe for the motor domain alone (GE Healthcare Lifesciences, UK). The data from at least three independent experiments were fitted to a modified Hill equation to determine the apparent Kd.

For data set [2], the system named is subtilisin-treated microtubules. Kind of data set: Microtubule cosedimentation assay, subtilisin-treated microtubules. In kind it is binding. The settings on record: 50 nM full-length protein; subtilisin 10 min; absence of nucleotide. Here is the method: as §1
Tubulin (5 mg/ml) was first polymerized into MTs in the presence of 1 mM GTP and gradual addition of 0.05 µM, 0.5 µM and 2 µM taxol for 1 hr at 37°C. The polymerized MTs were then treated with 100 μg/ml subtilisin and incubated at 37°C for 10 min to cleave β-tubulin tails and 120 min to cleave both α- and β-tubulin tails. Each reaction was then terminated with the addition of 3 mM PMSF. DM1A (Abcam, UK) and c-terminal β-tubulin (Sigma, UK) were used to detect the α- and β-tails, respectively by western blotting. The subtilisin treated microtubules were then pelleted at 28°C in a TLA100 rotor at 80,000 rpm for 10 min and the microtubule pellets were resuspended in warm BRB80 buffer to obtain subtilisin treated microtubules. The cosedimentation assays were then performed as described before.

The subject of data set [3] is taxol-stabilized microtubules. Kind of data set: Microtubule depolymerisation assay. The settings on record: 100 nM protein, 2 μM microtubules, 1 mM DTT, 2 mM Mg-ATP, room temperature; three experiments. It counts as biochemical. Here is the method:
Microtubule depolymerization assays were performed essentially as described previously ([Hertzer et al., 2006]). MCAK was diluted to 100 nM in S-buffer containing 1 mM DTT and 2 mM Mg-ATP. For depolymerization assays of the motor domain in presence of the CT domain after GST cleavage and removal, 50 nM of motor domain and 100 nM of the CT domain were used. The microtubule depolymerization assay was initiated by the addition of 2 μM taxol-stabilized microtubules to a reaction buffer containing MCAK. Reactions were incubated at room temperature with increasing times and followed by centrifugation to separate microtubules from free tubulin. The data are represented as mean ± SD from three independent experiments.

Data set [4] can be described thus: Analytical size-exclusion chromatography (oligomeric state / size). It counts as physicochemical. Here is the method:
Protein expression was induced by addition of 0.5 mM IPTG to BL21(DE3) Codon plus cells transformed with respective constructs at OD600 of 0.7–0.8 for 16 hr at 18°C. Cells were lysed by sonication in lysis buffer (50 mM Hepes, pH 7.4, 200 mM NaCl, 1 mM MgCl2, 1 mM PMSF, 1 mg/ml DNaseI, 2 mg/ml lysozyme, 10 mM Imidazole) and clarified at 20,000 rpm for 1 hr at 4°C. His-tagged and GST-tagged proteins were subsequently purified using Ni-NTA–agarose beads and glutathione-sepharose beads, respectively (GE Healthcare Life Sciences, UK)) according to the manufacturer's guidelines. MCAK constructs containing the motor domain were eluted with elution buffer (50 mM Hepes, pH 7.4, 200 mM NaCl, 1 mM MgCl2, 1 mM ATP, and 300 mM imidazole). Cleavage of the GST tag was performed using the GST-3C protease overnight at 4°C. […] Protein concentrations were determined with a combination of Bradford protein assays and densitometry of Coomassie-stained gels relative to a BSA standard. […]
(In general: In gel filtration, larger molecules generally elute earlier.)

B1: CTE712C-bound motor: motor domain covalently bound (disulphide) to CTE712C domain (protein)
chain 1: NPVNSVRRKSCLVKEVEKMKNKREEKKAQNSEMRMKRAQEYDSSFPNWEFARMIKEFRATLECHPLTMTDPIEEHRICVCVRKRPLNKQELAKKEIDVISIPSKCLLLVHEPKLKVDLTKYLENQAFCFDFAFDETASNEVVYRFTARPLVQTIFEGGKATCFAYGQTGSGKTHTMGGDLSGKAQNASKGIYAMASRDVFLLKNQPCYRKLGLEVYVTFFEIYNGKLFDLLNKKAKLRVLEDGKQQVQVVGLQEHLVNSADDVIKMIDMGSACRTSGQTFANSNSSRSHACFQIILRAKGRMHGKFSLVDLAGNERGADTSSADRQTRMEGAEINKSLLALKECIRALGQNKAHTPFRESKLTQVLRDSFIGENSRTCMIATISPGISSCEYTLNTLRYAD
chain 2: VIKALRLAMQLECQASRQISSKKRPQ
modifications: disulphide bridge of Cysteine 287 to Cysteine 712 of the CT_(E712C) domain | disulphide bridge of Cysteine 712 to Cysteine 287 of the motor domain; left off: His tag, end not stated, kept | GST, end n
On to B1, for which the “detection of CT domain in microtubule-bound pellet / supernatant” value in data set [1] (western blot, 50 nM motor domain, with and without DTT) was “remained in the supernatant”.

B2: MCAKS715E: full-length MCAK S715E in which the CT domain cannot bind to the motor domains (protein)
chain: MAMDSSLQARLFPGLAIKIQRSNGLIHSANVRTVNLEKSCVSVEWAEGGATKGKEIDFDDVAAINPELLQLLPLHPKDNLPLQENVTIQKQKRRSVNSKIPAPKESLRSRSTRMSTVSELRITAQENDMEVELPAAANSRKQFSVPPAPTRPSCPAVAEIPLRMVSEEMEEQVHSIRGSSSANPVNSVRRKSCLVKEVEKMKNKREEKKAQNSEMRMKRAQEYDSSFPNWEFARMIKEFRATLECHPLTMTDPIEEHRICVCVRKRPLNKQELAKKEIDVISIPSKCLLLVHEPKLKVDLTKYLENQAFCFDFAFDETASNEVVYRFTARPLVQTIFEGGKATCFAYGQTGSGKTHTMGGDLSGKAQNASKGIYAMASRDVFLLKNQPCYRKLGLEVYVTFFEIYNGKLFDLLNKKAKLRVLEDGKQQVQVVGLQEHLVNSADDVIKMIDMGSACRTSGQTFANSNSSRSHACFQIILRAKGRMHGKFSLVDLAGNERGADTSSADRQTRMEGAEINKSLLALKECIRALGQNKAHTPFRESKLTQVLRDSFIGENSRTCMIATISPGISSCEYTLNTLRYADRVKELSPHSGPSGEQLIQMETEEMEACSNGALIPGNLSKEEEELSSQMSSFNEAMTQIRELEEKAMEELKEIIQQGPDWLELSEMTEQPDYDLETFVNKAESALAQQAKHFSALRDVIKALRLAMQLEEQAERQISSKKRPQ
modifications: left off: His tag, end not stated, state not stated
For B2, in data set [1] (absence of nucleotide), the Kd was ~0.2 µM and 0.2 µM. Moreover, the “affinity for subtilisin-treated microtubules (β-tubulin C termini removed)” value in data set [2] is listed as “remained comparably high”. The “microtubule depolymerase activity, full-length” value in data set [3] was “appeared similar to wild type MCAK”.

B3: MCAKE712C: full-length MCAK with Glu712 mutated to cysteine (protein)
chain: MAMDSSLQARLFPGLAIKIQRSNGLIHSANVRTVNLEKSCVSVEWAEGGATKGKEIDFDDVAAINPELLQLLPLHPKDNLPLQENVTIQKQKRRSVNSKIPAPKESLRSRSTRMSTVSELRITAQENDMEVELPAAANSRKQFSVPPAPTRPSCPAVAEIPLRMVSEEMEEQVHSIRGSSSANPVNSVRRKSCLVKEVEKMKNKREEKKAQNSEMRMKRAQEYDSSFPNWEFARMIKEFRATLECHPLTMTDPIEEHRICVCVRKRPLNKQELAKKEIDVISIPSKCLLLVHEPKLKVDLTKYLENQAFCFDFAFDETASNEVVYRFTARPLVQTIFEGGKATCFAYGQTGSGKTHTMGGDLSGKAQNASKGIYAMASRDVFLLKNQPCYRKLGLEVYVTFFEIYNGKLFDLLNKKAKLRVLEDGKQQVQVVGLQEHLVNSADDVIKMIDMGSACRTSGQTFANSNSSRSHACFQIILRAKGRMHGKFSLVDLAGNERGADTSSADRQTRMEGAEINKSLLALKECIRALGQNKAHTPFRESKLTQVLRDSFIGENSRTCMIATISPGISSCEYTLNTLRYADRVKELSPHSGPSGEQLIQMETEEMEACSNGALIPGNLSKEEEELSSQMSSFNEAMTQIRELEEKAMEELKEIIQQGPDWLELSEMTEQPDYDLETFVNKAESALAQQAKHFSALRDVIKALRLAMQLECQASRQISSKKRPQ
modifications: left off: His tag, end not stated, state not stated
notes: full-length MCAK with Glu712 mutated to cysteine
For the molecule B3, the gel filtration profile result in data set [4] is reported as “eluted as one complex, of similar size to MCAK”. Also, the “microtubule binding, absence of DTT (oxidizing)” value in data set [1] (full-length protein 50 nM, absence of DTT and nucleotide) was “the affinity of MCAKE712C for microtubules was reduced and a fraction of MCAKE712C did not bind microtubules, even at saturating microtubule concentrations”. For the same molecule, in data set [1] (full-length protein 50 nM, with DTT, absence of nucleotide), the “microtubule binding, presence of DTT” value was “bound to microtubules similarly to wild type full-length MCAK”.

B4: MCAK: full-length wild type MCAK, kinesin-13 microtubule depolymerase (protein)
chain: MAMDSSLQARLFPGLAIKIQRSNGLIHSANVRTVNLEKSCVSVEWAEGGATKGKEIDFDDVAAINPELLQLLPLHPKDNLPLQENVTIQKQKRRSVNSKIPAPKESLRSRSTRMSTVSELRITAQENDMEVELPAAANSRKQFSVPPAPTRPSCPAVAEIPLRMVSEEMEEQVHSIRGSSSANPVNSVRRKSCLVKEVEKMKNKREEKKAQNSEMRMKRAQEYDSSFPNWEFARMIKEFRATLECHPLTMTDPIEEHRICVCVRKRPLNKQELAKKEIDVISIPSKCLLLVHEPKLKVDLTKYLENQAFCFDFAFDETASNEVVYRFTARPLVQTIFEGGKATCFAYGQTGSGKTHTMGGDLSGKAQNASKGIYAMASRDVFLLKNQPCYRKLGLEVYVTFFEIYNGKLFDLLNKKAKLRVLEDGKQQVQVVGLQEHLVNSADDVIKMIDMGSACRTSGQTFANSNSSRSHACFQIILRAKGRMHGKFSLVDLAGNERGADTSSADRQTRMEGAEINKSLLALKECIRALGQNKAHTPFRESKLTQVLRDSFIGENSRTCMIATISPGISSCEYTLNTLRYADRVKELSPHSGPSGEQLIQMETEEMEACSNGALIPGNLSKEEEELSSQMSSFNEAMTQIRELEEKAMEELKEIIQQGPDWLELSEMTEQPDYDLETFVNKAESALAQQAKHFSALRDVIKALRLAMQLEEQASRQISSKKRPQ
modifications: left off: His tag, end not stated, state not stated
notes: full-length wild type MCAK, kinesin-13 microtubule depolymerase
Consider B4, for which the Kd in data set [1] (absence of nucleotide) is ~1.5 µM and 1.5 µM. Moreover, in data set [2], the “affinity for subtilisin-treated microtubules (β-tubulin C termini removed)” value is given as “increased the affinity”.
